# Target: actin filaments (UniProt P68135 1-377)
# Assay: co-sedimentation
binder,measurement,value
Dys ΔH2-R19 (other) MLWWEEVEDCYEREDVQKKTFTKWINAQFSKFGKQHIDNLFSDLQDGKRLLDLLEGLTGQKLPKEKGSTRVHALNNVNKALRVLQKNNVDLVNIGSTDIVDGNHKLTLGLIWNIILHWQVKNVMKTIMAGLQQTNSEKILLSWVRQSTRNYPQVNVINFTSSWSDGLALNALIHSHRPDLFDWNSVVSQHSATQRLEHAFNIAKCQLGIEKLLDPEDVATTYPDKKSILMYITSLFQVLPQQVSIEAIQEVEMLPRTSSKVTREEHFQLHHQMHYSQQITVSLAQGYEQTSSSPKPRFKSYAFTQAAYVATSDSTQSPYPSQHLEAPRDKSLDSSLMETEVNLDSYQTALEEVLSWLLSAEDTLRAQGEISNDVEEVKEQFHAHEGFMMDLTSHQGLVGNVLQLGSQLVGKGKLSEDEEAEVQEQMNLLNSRWECLRVASMEKQSKLHKVLMDLQNQKLKELDDWLTKTEERTKKMEEEPFGPDLEDLKCQVQQHKVLQEDLEQEQVRVNSLTHMVVVVDESSGDHATAALEEQLKVLGDRWANICRWTEDRWIVLQDILLKWQHFTEEQCLFSTWLSEKEDAMKNIQTSGFKDQNEMMSSLHKISTLKIDLEKKKPTMEKLSSLNQDLLSALKNKSVTQKMEIWMENFAQRWDNLTQKLEKSSAQISQPDRAPGLSTTGASASQTVTLVTQSVVTKETVISKLEMPSSLLLEVPALADFNRAWTELTDWLSLLDRVIKSQRVMVGDLEDINEMIIKQKATLQDLEQRRPQLEELITAAQNLKNKTSNQEARTIITDRIERIQIQWDEVQEQLQNRRQQLNEMLKDSTQWLEAKEEAEQVIGQVRGKLDSWKEGPHTVDAIQKKITETKQLAKDLRQRQISVDVANDLALKLLRDYSADDTRKVHMITENINTSWGNIHKRVSEQEAALEETHRLLQQFPLDLEKFLSWITEAETTANVLQDASRKEKLLEDSRGVRELMKPWQDLQGEIETHTDIYHNLDENGQKILRSLEGSDEAPLLQRRLDNMNFKWSELQKKSLNIRSHLEASSDQWKRLHLSLQELLVWLQLKDDELSRQAPIGGDFPAVQKQNDIHRAFKRELKTKEPVIMSTLETVRIFLTEQPLEGLEKLYQEPRELPPEERAQNVTRLLRKQAEEVNAEWDKLNLRSADWQRKIDEALERLQELQEAADELDLKLRQAEVIKGSWQPVGDLLIDSLQDHLEKVKALRGEIAPLKENVNRVNDLAHQLTTLGIQLSPYNLSTLEDLNTRWRLLQVAVEDRVRQLHEAHRDFGPASQHFLSTSVQGPWERAISPNKVPYYINHETQTTCWDHPKMTELYQSLADLNNVRFSAYRTAMKLRRLQKALCLDLLSLSAACDALDQHNLKQNDQPMDILQIINCLTTIYDRLEQEHNNLVNVPLCVDMCLNWLLNVYDTGRTGRIRVLSFKTGIISLCKAHLEDKYRYLFKQVASSTGFCDQRRLGLLLHDSIQIPRQLGEVASFGGSNIEPSVRSCFQFANNKPEIEAALFLDWMRLEPQSMVWLPVLHRVAAAETAKHQAKCNICKECPIIGFRYRSLKHFNYDICQSCFFSGRVAKGHKMHYPMVEYCTPTTSGEDVRDFAKVLKNKFRTKRYFAKHPRMGYLPVQTVLEGDNMETPVTLINFWPVDSAPASSPQLSHDDTHSRIEHYASRLAEMENSNGSYLNDSISPNESIDDEHLLIQHYCQSLNQDSPLSQPRSPAQILISLESEERGELERILADLEEENRNLQAEYDRLKQQHEHKGLSPLPSPPEMMPTSPQSPRDAELIAEAKLLRQHKGRLEARMQILEDHNKQLESQLHRLRQLLEQPQAEAKVNGTTVSSPSTSLQRSDSSQPMLLRVVGSQTSESMGEEDLLSPPQDTSTGLEEVMEQLNNSFPSSRGRNAPGKPMREDTM,Kd,3.53 µM

# From article PMC3273627 (Journal of Molecular Biology, 2011)
